Values joined by “and” are separate entries in the source; they are usually repeats but may differ in a detail not shown here. Equal entries are not always repeated.
B2: GEMININ (human, full-length, MBP tag removed) (natural protein, UniProt O75496 1-209, looked up)
chain: MNPSMKQKQEEIKENIKNSSVPRRTLKMIQPSASGSLVGRENELSAGLSKRKHRNDHLTSTTSSPGVIVPESSENKNLGGVTQESFDLMIKENPSSQYWKEVAEKRRKALYEALKENEKLHKEIEQKDNEIARLKKENKELAEVAEHVQYMAELIERLNGEPLDNFESLDNQEFDSEEETVEDSLVEDSEIGTCAEGTVSSSTDAKPCI
notes: The His6 tag lies with MBP at the N-terminus, before the TEV site of pETMBP_1, so it was probably removed with MBP; also called GMNN; source: E. coli BL21Star (DE3), purified (Ni-NTA HisTrap HP, TEV digestion, size exclusion); not shown: MBP, N-terminal, cleaved

Assays:
Details in all cases: both partners purified
[1] = molecular target: B2; experiment: SPR; Biacore T200, GEMININ (1370 RU) immobilised by amine coupling on a CM5 chip; MBP fusions or MBP alone as analyte; 25 °C; PBS-TCEP (3.5 mM TCEP) with 350 mM NaCl (results: 437 mM NaCl); 30 μl/min; apparent KD from a steady-state fit
[2] = molecular target: T1, MBP-fused full-length SIX3 (SIX3 without aa 1-78) (human, UniProt O95343 79-332); experiment: ITC; Nano ITC LV, 25 °C, PBS-TCEP with 300 mM NaCl (results: 437 mM NaCl); 200 μM GEMININ (or its coiled-coil region) in the syringe, 10 μM MBPSIX3 (or MBP alone) in the cell; independent binding sites model; GEMININ-to-MBP control subtracted
T1 construct: SIX3, human, without the N-terminal homopolymeric region (aa 1-78, GenBank AF049339); A TEV site lies between the tags and SIX3; also called MBPSIX3; source: E. coli BL21Star (DE3), purified (Ni-NTA HisTrap HP, size exclusion); not shown: MBP, N-terminal, kept
T1 sequence (looked up): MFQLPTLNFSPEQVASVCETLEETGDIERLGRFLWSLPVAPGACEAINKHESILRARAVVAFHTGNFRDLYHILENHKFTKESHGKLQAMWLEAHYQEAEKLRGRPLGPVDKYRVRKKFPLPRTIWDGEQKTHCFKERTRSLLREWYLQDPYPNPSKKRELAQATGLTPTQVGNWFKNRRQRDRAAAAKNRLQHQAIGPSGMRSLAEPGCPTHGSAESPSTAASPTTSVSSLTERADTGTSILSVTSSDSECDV

[3] = molecular target: T1, MBP-fused full-length SIX3 (SIX3 …); experiment: SPR; Biacore T200, GEMININ (1370 RU) immobilised by amine coupling on a CM5 chip; MBP fusions or MBP alone as analyte; 25 °C; PBS-TCEP (3.5 mM TCEP) with 350 mM NaCl (results: 437 mM NaCl); 30 μl/min; apparent KD from a steady-state fit

B1: MBP-fused SIX domain of SIX3 (domain or fragment)
chain: MFQLPTLNFSPEQVASVCETLEETGDIERLGRFLWSLPVAPGACEAINKHESILRARAVVAFHTGNFRDLYHILENHKFTKESHGKLQAMWLEAHYQEAEKLRGRPLGPVDKYRVRKKFPLPRTIWD
modifications: Assayed as an N-terminal His6-MBP fusion (left out). Start follows the printed deletion of aa 1-78; end is derived from the stop-codon primer (T-I-W-D-stop), just before the homeobox at 206.
[1]
  Kd: 19.5 µM and 19.6 µM

## B2
[2]
  Kd: 3.4 µM and 3.41 µM
  dH: -75.8 kcal/mol
  stoichiometry N: 0.55
[3]
  Kd: 3.19 µM

Reference: PMC6895700, “SIX3 and SIX6 interact with GEMININ via C-terminal regions” (Biochemistry and Biophysics Reports, 2019)
